# Laboratory results as given in patent US20240034815A1 (Xencor, published 2024).
# Substitutions are numbered along the chain they refer to.
# B1: XENP34920 (bispecific antibody)
# heavy 1: QVQLVQSGAEVKKPGASVKVSCKASGYTFTDYEMHWVRQAPGQGLEWMGALEPKTGDTAYSQKFQGRVTMTADKSISTAYMELSRLRSDDTAVYYCTRFYSYTYWGQGTLVTVSSASTKGPSVFPLAPSSKSTSGGTAALGCLVKDYFPEPVTVSWNSGALTSGVHTFPAVLQSSGLYSLSSVVTVPSSSLGTQTYICNVNHKPSDTKVDKKVEPKSCDKTHTCPPCPAPPVAGPSVFLFPPKPKDTLMISRTPEVTCVVVDVKHEDPEVKFNWYVDGVEVHNAKTKPREEEYNSTYRVVSVLTVLHQDWLNGKEYKCKVSNKALPAPIEKTISKAKGQPREPQVYTLPPSREEMTKNQVSLTCDVSGFYPSDIAVEWESDGQPENNYKTTPPVLDSDGSFFLYSKLTVDKSRWEQGDVFSCSVMHEALHNHYTQKSLSLSPGK
# heavy 2: QVQLVQSGAEVKKPGASVKVSCKASGYTFTDYEMHWVRQAPGQGLEWMGALEPKTGDTAYSQKFQGRVTMTADKSISTAYMELSRLRSDDTAVYYCTRFYSYTYWGQGTLVTVSSASTKGPSVFPLAPSSKSTSGGTAALGCLVKDYFPEPVTVSWNSGALTSGVHTFPAVLQSSGLYSLSSVVTVPSSSLGTQTYICNVNHKPSNTKVDKKVEPKSCGGGGSGGGGSQAVVTQEPSLTVSPGGTVTLTCGSSTGAVTTSNYANWVQQKPGKSPRGLIGGTNKRAPGVPARFSGSLLGGKAALTISGAQPEDEADYYCALWYSNHWVFGGGTKLTVLGKPGSGKPGSGKPGSGKPGSEVQLVESGGGLVQPGGSLRLSCAASGFTFSTYAMNWVRQAPGKGLEWVGRIRSKANNYATYYADSVKGRFTISRDDSKNTLYLQMNSLRAEDTAVYYCVRHGNFGDSYVSWFAYWGQGTLVTVSSGGGGSGGGGSKTHTCPPCPAPPVAGPSVFLFPPKPKDTLMISRTPEVTCVVVDVKHEDPEVKFNWYVDGVEVHNAKTKPREEQYNSTYRVVSVLTVLHQDWLNGKEYKCKVSNKALPAPIEKTISKAKGQPREPQVYTLPPSREQMTKNQVKLTCLVKGFYPSDIAVEWESNGQPENNYKTTPPVLDSDGSFFLYSKLTVDKSRWQQGNVFSCSVMHEALHNHYTQKSLSLSPGK
# light: DVVMTQSPLSLPVTLGQPASISCRSSQSLVHSSGNTYLHWYQQRPGQSPRLLIYKVSNRFSGVPDRFSGSGSGTDFTLKISRVEAEDVGVYFCSQSTHVPPTFGSGTKLEIKRTVAAPSVFIFPPSDEQLKSGTASVVCLLNNFYPREAKVQWKVDNALQSGNSQESVTEQDSKDSTYSLSSTLTLSKADYEKHKVYACEVTHQGLSSPVTKSFNRGEC
# B2: XENP36941 (GPC3-A H1.1_L1.29 formatted as 1+1 Fab-scFv-Fc with CD3 High-Int #1 scFv) (bispecific antibody)
# heavy: B1 heavy 1
# scFv-Fc: not shown
# light: B1 light with S33N, K55Q, S96N
# notes: 1+1 Fab-scFv-Fc, human IgG1 heterodimeric backbone; treated as one molecule; also called [GPC3]H1.1_L1.29
# B3: GPC3-A H1.1_L1.73 in the 1+1 Fab-scFv-Fc bsAb format (bispecific antibody)
# heavy: B1 heavy 1
# scFv-Fc: not shown
# light: B1 light with S33N, G34K, K55Y, S96N
# notes: also called [GPC3]H1.1_L1.73
# B4: XENP35843 (GPC3-A H1.1_L1.16 formatted as 1+1 Fab-scFv-Fc with CD3 High-Int #1 scFv) (bispecific antibody)
# heavy: B1 heavy 1
# scFv-Fc: not shown
# light: B1 light
# notes: 1+1 Fab-scFv-Fc, human IgG1 heterodimeric backbone; treated as one molecule; also called [GPC3]H1.1_L1.16
# B5: GPC3-A H1.1_L1.6 formatted as 1+1 Fab-scFv-Fc with CD3 High-Int #1 scFv (bispecific antibody)
# heavy: B1 heavy 1
# scFv-Fc: not shown
# light: B1 light with S33N, G34T, S96N
# notes: 1+1 Fab-scFv-Fc: VH-CH1-hinge-CH2-CH3 chain and VL-CL light chain form the GPC3 Fab, plus an scFv-Fc chain; also called [GPC3]H1.1_L1.6
# B6: XENP36140 (GPC3-A H1.1_L1.31 formatted as 1+1 Fab-scFv-Fc with CD3 High-Int #1 scFv) (bispecific antibody)
# heavy: B1 heavy 1
# scFv-Fc: not shown
# light: B1 light with S33N, K55Y, S96N
# notes: 1+1 Fab-scFv-Fc, human IgG1 heterodimeric backbone; treated as one molecule; also called [GPC3]H1.1_L1.31
# B7: GPC3-A H1.1_L1.69 in the 1+1 Fab-scFv-Fc bsAb format (bispecific antibody)
# heavy: B1 heavy 1
# scFv-Fc: not shown
# light: B1 light with S33N, G34A, K55Q, S96N
# notes: also called [GPC3]H1.1_L1.69
# Columns and labels:
# [1] = target: T1, cell surface GPC3 on GPC3-expressing cell lines (HepG2 GPC3^high, Huh7 GPC3^med) (UniProt P51654 25-554); experiment: cell-based or functional assay
# T1 sequence (P51654 25-554 limits assumed): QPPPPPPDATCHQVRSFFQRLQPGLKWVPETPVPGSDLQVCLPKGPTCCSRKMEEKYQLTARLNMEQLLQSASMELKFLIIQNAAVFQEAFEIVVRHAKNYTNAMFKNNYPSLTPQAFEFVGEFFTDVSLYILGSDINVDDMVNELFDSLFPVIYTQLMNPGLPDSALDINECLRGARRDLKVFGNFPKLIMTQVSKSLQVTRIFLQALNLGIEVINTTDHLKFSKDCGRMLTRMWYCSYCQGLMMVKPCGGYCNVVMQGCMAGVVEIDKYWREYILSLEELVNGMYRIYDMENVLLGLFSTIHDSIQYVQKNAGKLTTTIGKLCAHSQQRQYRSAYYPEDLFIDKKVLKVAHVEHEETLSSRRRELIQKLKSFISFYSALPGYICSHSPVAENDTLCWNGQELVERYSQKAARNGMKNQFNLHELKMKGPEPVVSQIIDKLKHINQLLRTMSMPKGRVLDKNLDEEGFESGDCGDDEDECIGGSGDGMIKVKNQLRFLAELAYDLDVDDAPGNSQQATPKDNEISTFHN
# His-tagged human GPC3 [2] = target: T2, His-tagged human GPC3 (human, UniProt P51654 25-559, limits assumed); experiment: Octet (BLI); His-tagged GPC3 captured on HIS1K sensors, bsAb in solution
# T2 construct: Captured on HIS1K sensors in the Octet assay; also called human GPC3 antigen; Glypican 3; not shown: His tag
# T2 sequence (P51654 25-559 limits assumed): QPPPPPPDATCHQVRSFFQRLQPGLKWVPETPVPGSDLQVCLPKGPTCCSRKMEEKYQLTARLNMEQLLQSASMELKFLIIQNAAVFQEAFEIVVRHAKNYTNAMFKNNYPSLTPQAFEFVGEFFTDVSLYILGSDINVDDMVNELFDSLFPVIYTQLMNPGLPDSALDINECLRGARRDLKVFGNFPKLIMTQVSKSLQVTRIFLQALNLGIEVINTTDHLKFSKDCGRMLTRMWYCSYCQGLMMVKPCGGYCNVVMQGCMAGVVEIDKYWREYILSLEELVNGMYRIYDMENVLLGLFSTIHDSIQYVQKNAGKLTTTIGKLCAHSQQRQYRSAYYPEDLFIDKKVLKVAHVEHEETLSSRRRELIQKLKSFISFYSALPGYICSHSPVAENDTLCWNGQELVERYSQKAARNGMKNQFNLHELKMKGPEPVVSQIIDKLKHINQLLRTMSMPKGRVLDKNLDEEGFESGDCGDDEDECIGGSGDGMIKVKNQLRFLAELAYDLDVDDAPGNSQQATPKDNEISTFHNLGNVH
# Experimental: (§1) After humanization, GPC3 binding arms were engineered with single point mutations in the variable light domain with the aim to create a ladder of GPC3 binding affinity, illustrative sequences for which are depicted in FIG. 13. 73 variable light domain variants were engineered and paired with GPC3-A H1.1 (see Example 3C for description of GPC3-A H1.1 variant). The GPC3-A variants were engineered in the 1+1 Fab-scFv-Fc bsAb format and binding for GPC3 antigen was measured using Octet, a BioLayer Interferometry (BLI)-based method. Experimental steps for Octet generally include the following: Immobilization (capture of ligand to a biosensor); Association (dipping of ligand-coated biosensors into wells containing the analyte); and Dissociation (returning of biosensors to well containing buffer). For ease of clinical development (e.g. by investigating the therapeutics in model animals), it is useful for the binding domains to be cross-reactive for cynomolgus antigen; therefore, binding to both human and cynomolgus GPC3 antigen were investigated. His-tagged human and cynomolgus GPC3 were captured on HIS1K sensors then dipped into multiple concentrations of the bispecific antibodies. The resulting dissociation constant (KD) are depicted in FIG. 23.
# His-tagged human GPC3 [3] = target: T2, His-tagged human GPC3; experiment: affinity label of the GPC3 binding domain; Octet (BLI) of Example 2
# Experimental: as §1
# His-tagged human GPC3 [4] = target: T2, His-tagged human GPC3; experiment: binding assay not named for this figure; Octet (BLI) is the method of Example 2B
# Experimental: as §1
# [5] = target: T3, His-tagged cynomolgus GPC3 (cynomolgus, UniProt A0A2K5VK50 24-558); experiment: as above
# T3 construct: Captured on HIS1K sensors in the Octet assay; also called cynomolgus GPC3 antigen; cyno GPC3; not shown: His tag
# Experimental: as §1
# [6] = target: T1, cell surface GPC3 on GPC3-expressing …; experiment: flow cytometry on HepG2 (GPC3high) cells, anti-human Fc secondary
# Experimental: (§2) Next, binding of the variants to cell surface GPC3 was investigated. Illustrative affinity variants H1.1_L1.29, H1.1_L1.16, and H1.1_L1.31 were engineered in the 1+1 Fab-scFv-Fc format. […] Cells were then washed and stained with a secondary antibody (typically anti-human Fc AlexaFlour647) for 1 hr at 4° C. After 2 more washes, cells were analyzed by flow cytometry.
# [7] = target: T1, cell surface GPC3 on GPC3-expressing …; experiment: flow cytometry on HepG2 (GPC3high) cells, secondary antibody stain
# Experimental: as §2
binder,measurement,setting,value
B1,"EC50 of RTCC (2D RTCC on Incucyte, HepG2, 10:1 effector:target ratio)",[1],< 0.1 µg/mL
B2,Kd,His-tagged human GPC3 [2],70 nM
B3,Kd,His-tagged human GPC3 [3],400 nM
same,Kd,His-tagged human GPC3 [4],477 nM
same,Kd,[5],550 nM
B4,Kd,His-tagged human GPC3 [2],100 nM
B5,Kd,His-tagged human GPC3 [2],4 nM
B6,Kd,His-tagged human GPC3 [2],400 nM
same,EC50 (read off the curve),[6],~3 µg/mL
same,EC50 (read off the curve),[7],~3 µg/mL
B7,Kd,His-tagged human GPC3 [3],70 nM
same,Kd,His-tagged human GPC3 [4],150 nM
same,Kd,[5],150 nM
